Results published in the Human Domainome abundance scans (Beltran et al. 2025).
± gives the uncertainty stated by the source.

B1: Zinc finger homeobox protein 3, residues 2643 to 2698; numbered along this chain, Q15911 (parent)
chain: RLRTTITPEQLEILYQKYLLDSNPTRKMLDHIAHEVGLKKRVVQVWFQNTRARERK

Variants of: B1
Assay: abundance fitness (aPCA) (normalised: wild type 0, dead -1); higher = more abundant; growth selection in yeast, the domain comes from the species named
Conditions: Homo sapiens

| Variant | abundance fitness |
| --- | --- |
| RLRTTITPEQLEILYQKYLLDSNPTRKMLDHDAHEVGLKKRVVQVWFQNTRARERK [I32D] | -1.02 ± 0.18 |
| RLRTTITPEQLEILYQKYLLDSNPTRKMLDHEAHEVGLKKRVVQVWFQNTRARERK [I32E] | -0.9 ± 0.13 |
| RLRTTITPEQLEILYQKYLLDSNPTRKMLDHFAHEVGLKKRVVQVWFQNTRARERK [I32F] | -0.108 ± 0.14 |
| RLRTTITPEQLEILYQKYLLDSNPTRKMLDHGAHEVGLKKRVVQVWFQNTRARERK [I32G] | -0.77 ± 0.094 |
| RLRTTITPEQLEILYQKYLLDSNPTRKMLDHHAHEVGLKKRVVQVWFQNTRARERK [I32H] | -0.527 ± 0.26 |
| RLRTTITPEQLEILYQKYLLDSNPTRKMLDHKAHEVGLKKRVVQVWFQNTRARERK [I32K] | -0.807 ± 0.14 |
| RLRTTITPEQLEILYQKYLLDSNPTRKMLDHLAHEVGLKKRVVQVWFQNTRARERK [I32L] | -0.123 ± 0.08 |
| RLRTTITPEQLEILYQKYLLDSNPTRKMLDHMAHEVGLKKRVVQVWFQNTRARERK [I32M] | -0.466 ± 0.1 |
| RLRTTITPEQLEILYQKYLLDSNPTRKMLDHNAHEVGLKKRVVQVWFQNTRARERK [I32N] | -1.25 ± 0.25 |
| RLRTTITPEQLEILYQKYLLDSNPTRKMLDHPAHEVGLKKRVVQVWFQNTRARERK [I32P] | -0.915 ± 0.13 |
| RLRTTITPEQLEILYQKYLLDSNPTRKMLDHRAHEVGLKKRVVQVWFQNTRARERK [I32R] | -1.01 ± 0.11 |
| RLRTTITPEQLEILYQKYLLDSNPTRKMLDHSAHEVGLKKRVVQVWFQNTRARERK [I32S] | -0.735 ± 0.1 |
| RLRTTITPEQLEILYQKYLLDSNPTRKMLDHTAHEVGLKKRVVQVWFQNTRARERK [I32T] | -0.274 ± 0.1 |
| RLRTTITPEQLEILYQKYLLDSNPTRKMLDHVAHEVGLKKRVVQVWFQNTRARERK [I32V] | -0.078 ± 0.084 |
| RLRTTITPEQLEILYQKYLLDSNPTRKMLDHWAHEVGLKKRVVQVWFQNTRARERK [I32W] | -0.129 ± 0.11 |
| RLRTTITPEQLEILYQKYLLDSNPTRKMLDHYAHEVGLKKRVVQVWFQNTRARERK [I32Y] | -0.378 ± 0.2 |
| RLRTTITPEQLEILYQKYLLDSNPTRKMLDHICHEVGLKKRVVQVWFQNTRARERK [A33C] | -0.127 ± 0.1 |
| RLRTTITPEQLEILYQKYLLDSNPTRKMLDHIDHEVGLKKRVVQVWFQNTRARERK [A33D] | -0.866 ± 0.11 |
| RLRTTITPEQLEILYQKYLLDSNPTRKMLDHIEHEVGLKKRVVQVWFQNTRARERK [A33E] | -0.759 ± 0.18 |
| RLRTTITPEQLEILYQKYLLDSNPTRKMLDHIGHEVGLKKRVVQVWFQNTRARERK [A33G] | -0.398 ± 0.086 |
| RLRTTITPEQLEILYQKYLLDSNPTRKMLDHIKHEVGLKKRVVQVWFQNTRARERK [A33K] | -0.804 ± 0.14 |
| RLRTTITPEQLEILYQKYLLDSNPTRKMLDHILHEVGLKKRVVQVWFQNTRARERK [A33L] | -0.872 ± 0.089 |
| RLRTTITPEQLEILYQKYLLDSNPTRKMLDHIMHEVGLKKRVVQVWFQNTRARERK [A33M] | -0.832 ± 0.14 |
| RLRTTITPEQLEILYQKYLLDSNPTRKMLDHINHEVGLKKRVVQVWFQNTRARERK [A33N] | -0.906 ± 0.11 |

| Variant | abundance fitness |
| --- | --- |
| RLRTTITPEQLEILYQKYLLDSNPTRKMLDHIPHEVGLKKRVVQVWFQNTRARERK [A33P] | -0.746 ± 0.085 |
| RLRTTITPEQLEILYQKYLLDSNPTRKMLDHIQHEVGLKKRVVQVWFQNTRARERK [A33Q] | -0.845 ± 0.14 |
| RLRTTITPEQLEILYQKYLLDSNPTRKMLDHISHEVGLKKRVVQVWFQNTRARERK [A33S] | -0.06 ± 0.074 |
| RLRTTITPEQLEILYQKYLLDSNPTRKMLDHITHEVGLKKRVVQVWFQNTRARERK [A33T] | -0.43 ± 0.08 |
| RLRTTITPEQLEILYQKYLLDSNPTRKMLDHIVHEVGLKKRVVQVWFQNTRARERK [A33V] | -0.492 ± 0.084 |
| RLRTTITPEQLEILYQKYLLDSNPTRKMLDHIWHEVGLKKRVVQVWFQNTRARERK [A33W] | -0.728 ± 0.18 |
| RLRTTITPEQLEILYQKYLLDSNPTRKMLDHIYHEVGLKKRVVQVWFQNTRARERK [A33Y] | -0.822 ± 0.11 |
| RLRTTITPEQLEILYQKYLLDSNPTRKMLDHIAAEVGLKKRVVQVWFQNTRARERK [H34A] | -0.123 ± 0.11 |
| RLRTTITPEQLEILYQKYLLDSNPTRKMLDHIACEVGLKKRVVQVWFQNTRARERK [H34C] | -0.075 ± 0.099 |
| RLRTTITPEQLEILYQKYLLDSNPTRKMLDHIADEVGLKKRVVQVWFQNTRARERK [H34D] | 0.035 ± 0.15 |
| RLRTTITPEQLEILYQKYLLDSNPTRKMLDHIAEEVGLKKRVVQVWFQNTRARERK [H34E] | 0.099 ± 0.16 |
| RLRTTITPEQLEILYQKYLLDSNPTRKMLDHIAFEVGLKKRVVQVWFQNTRARERK [H34F] | -0.114 ± 0.15 |
| RLRTTITPEQLEILYQKYLLDSNPTRKMLDHIAGEVGLKKRVVQVWFQNTRARERK [H34G] | 0.062 ± 0.093 |
| RLRTTITPEQLEILYQKYLLDSNPTRKMLDHIAIEVGLKKRVVQVWFQNTRARERK [H34I] | -0.632 ± 0.2 |
| RLRTTITPEQLEILYQKYLLDSNPTRKMLDHIAKEVGLKKRVVQVWFQNTRARERK [H34K] | 0.213 ± 0.16 |
| RLRTTITPEQLEILYQKYLLDSNPTRKMLDHIALEVGLKKRVVQVWFQNTRARERK [H34L] | -0.225 ± 0.084 |
| RLRTTITPEQLEILYQKYLLDSNPTRKMLDHIAMEVGLKKRVVQVWFQNTRARERK [H34M] | -0.092 ± 0.14 |
| RLRTTITPEQLEILYQKYLLDSNPTRKMLDHIANEVGLKKRVVQVWFQNTRARERK [H34N] | -0.044 ± 0.18 |
| RLRTTITPEQLEILYQKYLLDSNPTRKMLDHIAPEVGLKKRVVQVWFQNTRARERK [H34P] | -0.739 ± 0.12 |
| RLRTTITPEQLEILYQKYLLDSNPTRKMLDHIAQEVGLKKRVVQVWFQNTRARERK [H34Q] | -0.017 ± 0.1 |
| RLRTTITPEQLEILYQKYLLDSNPTRKMLDHIASEVGLKKRVVQVWFQNTRARERK [H34S] | 0.009 ± 0.089 |
| RLRTTITPEQLEILYQKYLLDSNPTRKMLDHIAWEVGLKKRVVQVWFQNTRARERK [H34W] | -0.095 ± 0.1 |
| RLRTTITPEQLEILYQKYLLDSNPTRKMLDHIAYEVGLKKRVVQVWFQNTRARERK [H34Y] | -0.012 ± 0.12 |
